This data set has as its target T1, POT1 (Homo sapiens, UniProt Q9NUX5 1-634).
T1 sequence: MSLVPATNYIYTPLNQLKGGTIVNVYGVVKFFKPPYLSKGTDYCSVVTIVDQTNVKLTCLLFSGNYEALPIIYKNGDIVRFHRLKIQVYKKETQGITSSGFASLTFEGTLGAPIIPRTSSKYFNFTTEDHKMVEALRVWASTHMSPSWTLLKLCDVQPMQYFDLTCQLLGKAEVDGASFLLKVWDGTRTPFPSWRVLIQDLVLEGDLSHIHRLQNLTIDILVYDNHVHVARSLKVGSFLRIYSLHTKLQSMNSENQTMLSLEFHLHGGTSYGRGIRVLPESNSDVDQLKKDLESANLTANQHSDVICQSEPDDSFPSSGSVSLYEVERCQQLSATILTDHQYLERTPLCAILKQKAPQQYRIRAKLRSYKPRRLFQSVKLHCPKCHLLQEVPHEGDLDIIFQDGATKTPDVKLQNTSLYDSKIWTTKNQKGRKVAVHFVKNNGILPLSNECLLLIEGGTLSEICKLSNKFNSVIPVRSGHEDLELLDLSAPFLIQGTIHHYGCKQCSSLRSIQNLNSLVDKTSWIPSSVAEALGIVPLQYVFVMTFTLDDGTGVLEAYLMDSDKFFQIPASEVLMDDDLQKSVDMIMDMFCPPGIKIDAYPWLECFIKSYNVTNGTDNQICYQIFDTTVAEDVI
The data set can be described thus: EMSA. Background: A gel shift assay detects complexes by their altered migration in electrophoresis.

What is called Kd is the free concentration of one partner at which half of the binding sites on the other are occupied at equilibrium, for simple one-to-one binding. A high value points to a looser complex. TTAGGGTTAGCGTTAGGGTT (ssDNA) [primer a5TT] yielded a Kd of 50 nM.

For the origin of these results see PMC4355236.
